In article PMC11079166 one finds IC50 of inhibition of the classical pathway (MAC formation, anti-C5b-9 ELISA on IgM; NHS pre-incubated with 0.001 to 4 µM protein) and Kd data, which are given here for seven molecules.

For assay [1], the target named is complement component C1r (human).
Assay [2] addresses CihC of B. recurrentis A17 (aa 20-356) (Borrelia recurrentis A17). The assay can be described thus: ELISA; CihC/FbpC orthologs (5 µg/ml) immobilised, increasing plasminogen (0 to 1.5 µM); apparent dissociation constant by non-linear regression, one-site specific binding model.
Assay [3] addresses CihC/FbpC of B. hermsii FRO (aa 21-374) (Borrelia hermsii FRO). The assay is described as above.
Assay [4] deals with CihC/FbpC ortholog of B. parkeri (aa 25-349) (Borrelia parkeri). The description is as above.
The target in assay [5] is CihC/FbpC ortholog of B. turicatae (aa 21-363) (Borrelia turicatae). The assay is described as above.

Consider “CihC of B. recurrentis A17 (aa 20-356) (natural protein)”, for which the IC50 of inhibition of the classical pathway (MAC formation, anti-C5b-9 ELISA on IgM; NHS pre-incubated with 0.001 to 4 µM protein) in assay [1] worked out at 62 nM. Take “CihC-C of B. recurrentis (aa 195-356) (domain or fragment)”: the IC50 of inhibition of the classical pathway (MAC formation, anti-C5b-9 ELISA on IgM; NHS pre-incubated with 0.001 to 4 µM protein) in assay [1] was found to be 272 nM. Same read-out and setting: under “CihC/FbpC of B. hermsii FRO (aa 21-374) (natural protein)” stands 56 nM. Still for that read-out and setting: the same measure for “CihC/FbpC ortholog of B. parkeri (aa 25-349) (natural protein)”: 63 nM.

“CihC/FbpC ortholog of B. turicatae (aa 21-363) (natural protein)”: the IC50 of inhibition of the classical pathway (MAC formation, anti-C5b-9 ELISA on IgM; NHS pre-incubated with 0.001 to 4 µM protein) in assay [1] is 95 nM.

Take human glu-plasminogen (natural protein): the Kd in assay [2] came out at 93.1 nM; in assay [3], 24.2 nM; in assay [4], 62.7 nM; in assay [5], 284 nM.

B1: C-terminal fragment of BBK32 of B. burgdorferi B31 (domain or fragment)
chain: SNRYQSYLEGVKYNVDSAIQTITKIYNTYTLFSTKLTQMYSTRLDNFAKAKAKEEAAKFTKEDLEKNFKTLLNYIQVSVKTAANFVYINDTHAKRKLENIEAEIKTLIAKIKEQSNLYEAYKAIVTSILLMRDSLKEVQGIID
In assay [1], B1 gave an IC50 of inhibition of the classical pathway (MAC formation, anti-C5b-9 ELISA on IgM; NHS pre-incubated with 0.001 to 4 µM protein) of 75 nM.
